{"source": "paper PMC5377317", "about": "“Generation of Aptamers from A Primer-Free Randomized ssDNA Library Using Magnetic-Assisted Rapid Aptamer Selection”", "target": "T1, C-reactive protein (CRP) (human, UniProt P02741 19-224)", "T1 sequence": "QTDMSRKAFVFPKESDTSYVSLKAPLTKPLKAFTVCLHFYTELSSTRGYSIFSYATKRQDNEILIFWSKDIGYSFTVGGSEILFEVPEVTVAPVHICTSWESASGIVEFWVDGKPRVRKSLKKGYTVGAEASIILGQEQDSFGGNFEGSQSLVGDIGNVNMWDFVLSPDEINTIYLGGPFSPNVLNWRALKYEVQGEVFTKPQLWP", "assay": "magnetic bead pull-down with q-PCR, saturation fit; apparent Kd; 2 mM MgCl2; CRP-MNPs; BD buffer: 50 mM NaH2PO4 pH 8.0, 150 mM NaCl, 5 mM KCl, 2 mM MgCl2, 0.05% Tween-20; room temperature, 30 min; aptamer 1.5625-200 nM", "conditions": "protein: commercial; tags: biotinylated (EZ-Link Sulfo-NHS-Biotin), on streptavidin magnetic nanoparticles; chain copies: 5; single strand, small loop predicted by Mfold (dG -2.93 kcal/mol)"}
{"binder": "GTTGACGGGCGATTGGTCTT (ssDNA)", "note": "[PF20N-RO-MARAS-84-1]", "values": [{"measurement": "Kd", "value": "23.6 ± 0.82", "unit": "nM"}]}
